This note sets out measurements from PMC11696352.

For the assay, the target named is importin α5 (UniProt P52294). Nature of the assay: Flag co-IP, immunoblot. The note with it: reference: Flag-GCLM wild type; sites T17.

In the case of “GCLM (glutamate-cysteine ligase modifier subunit) (from UniProt P48507) Flag-GCLM T17A”, the “binding against the reference” value is reported as “weaker”.
